Test results reported in paper PMC10003451, “Phosphorylated Peptide Derived from the Myosin Phosphatase Target Subunit Is a Novel Inhibitor of Protein Phosphatase-1” (International Journal of Molecular Sciences, 2023).
Where no end group is shown, it is not given here. [ ]: non-standard residue; d: D form. pT = C[C@@H](OP(=O)(O)O)[C@H](N)C(=O)O

Legend:
[1] = target: T1, recombinant protein phosphatase-1 catalytic subunit alpha (PP1cα) (UniProt P62136 1-330); assay: MST; label-free (Monolith NT.LabelFree, intrinsic fluorescence of rPP1cα); 16-point two-fold peptide dilution 9.16 nM-300 µM mixed with rPP1cα 2 µM; 25 mM Tris/HCl, 100 mM NaCl, 1 mM DTT, 0.1% PEG 8000, pH 8.0; details: both partners purified
T1 construct: protein phosphatase-1 catalytic subunit, alpha isoform; recombinant; also called rPP1cα; recombinant PP1c; source: E. coli, purified from the bacterial lysate
T1 sequence (P62136 whole entry, canonical isoform): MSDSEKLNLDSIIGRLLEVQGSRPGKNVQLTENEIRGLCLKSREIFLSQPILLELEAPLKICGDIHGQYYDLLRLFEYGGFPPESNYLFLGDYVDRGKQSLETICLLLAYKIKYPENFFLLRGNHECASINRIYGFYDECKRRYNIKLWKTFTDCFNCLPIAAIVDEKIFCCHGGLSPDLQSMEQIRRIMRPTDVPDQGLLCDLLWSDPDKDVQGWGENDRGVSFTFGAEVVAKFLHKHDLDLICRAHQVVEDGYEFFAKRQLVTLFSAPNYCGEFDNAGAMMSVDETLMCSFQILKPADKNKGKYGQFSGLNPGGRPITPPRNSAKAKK

[2] = target: T1, recombinant protein phosphatase-1 …; assay: ITC; MicroCal ITC200; rPP1cα (0.5-2 µM) in the cell, peptide (5-20 µM) in the syringe, 19 injections of 2 µL; 25 mM Tris/HCl pH 8.0, 150 mM NaCl, 1 mM TCEP; 25 °C; one set of sites model; details: both partners purified
[3] = target: Flag-MYPT1-PP1c complex (myosin phosphatase holoenzyme) ( | human (endogenous in …, UniProt O14974 1-1030; P62140 1-327); assay: cell-based or functional assay
Chain of Flag-MYPT1-PP1c complex (myosin phosphatase holoenzyme) ( | human (O14974 whole entry, chain 1 of 2): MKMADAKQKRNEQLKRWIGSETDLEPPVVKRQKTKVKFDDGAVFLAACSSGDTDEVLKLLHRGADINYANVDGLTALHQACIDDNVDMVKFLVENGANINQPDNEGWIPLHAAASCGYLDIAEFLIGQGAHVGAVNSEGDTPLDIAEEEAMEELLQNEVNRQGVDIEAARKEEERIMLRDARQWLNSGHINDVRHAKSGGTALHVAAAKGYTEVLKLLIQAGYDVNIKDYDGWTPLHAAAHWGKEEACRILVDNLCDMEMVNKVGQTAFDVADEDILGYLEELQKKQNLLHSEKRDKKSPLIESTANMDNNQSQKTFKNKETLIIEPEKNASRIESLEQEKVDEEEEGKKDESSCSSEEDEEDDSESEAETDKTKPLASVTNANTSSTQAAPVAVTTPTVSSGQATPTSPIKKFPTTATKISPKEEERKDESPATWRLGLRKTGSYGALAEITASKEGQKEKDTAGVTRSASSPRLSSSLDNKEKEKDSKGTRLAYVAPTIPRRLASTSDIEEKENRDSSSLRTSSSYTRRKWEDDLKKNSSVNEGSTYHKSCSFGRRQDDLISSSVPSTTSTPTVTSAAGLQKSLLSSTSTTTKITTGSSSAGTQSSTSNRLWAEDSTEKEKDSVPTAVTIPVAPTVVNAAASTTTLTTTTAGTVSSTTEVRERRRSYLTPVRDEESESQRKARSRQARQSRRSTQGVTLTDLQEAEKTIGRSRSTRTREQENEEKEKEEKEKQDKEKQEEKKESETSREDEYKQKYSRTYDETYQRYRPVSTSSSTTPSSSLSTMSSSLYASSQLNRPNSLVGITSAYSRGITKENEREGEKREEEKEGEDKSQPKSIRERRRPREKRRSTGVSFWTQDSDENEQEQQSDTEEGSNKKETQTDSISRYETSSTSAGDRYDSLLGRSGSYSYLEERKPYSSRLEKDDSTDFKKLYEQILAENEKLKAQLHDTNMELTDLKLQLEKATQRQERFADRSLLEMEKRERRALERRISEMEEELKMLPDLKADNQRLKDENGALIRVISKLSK
Chain of Flag-MYPT1-PP1c complex (myosin phosphatase holoenzyme) ( | human (P62140 whole entry, chain 2 of 2): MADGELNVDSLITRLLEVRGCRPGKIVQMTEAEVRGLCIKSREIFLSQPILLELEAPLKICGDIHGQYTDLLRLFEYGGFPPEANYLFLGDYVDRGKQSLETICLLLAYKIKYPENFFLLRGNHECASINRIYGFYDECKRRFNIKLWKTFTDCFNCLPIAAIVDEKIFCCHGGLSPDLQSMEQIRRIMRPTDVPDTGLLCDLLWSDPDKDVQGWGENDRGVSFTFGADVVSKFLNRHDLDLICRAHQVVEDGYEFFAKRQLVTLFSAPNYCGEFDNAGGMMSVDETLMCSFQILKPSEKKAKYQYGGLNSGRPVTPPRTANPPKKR

[4] = target: native catalytic subunit of protein phosphatase-1 (PP1c) from rabbit skeletal muscle (rabbit, UniProt P62139 1-330); assay: cell-based or functional assay
Chain of native catalytic subunit of protein phosphatase-1 (PP1c) from rabbit skeletal muscle (P62139 whole entry): as the sequence (P62136 whole entry, canonical isoform) above

B1: P-Thr696-MYPT1^690−701 (phosphorylated peptide of the inhibitory region of myosin phosphatase target subunit-1) (peptide)
peptide: RQSRRS[pT]QGVTL
notes: myosin phosphatase target subunit-1 (MYPT1), residues 690-701, phosphorylated at Thr696; no tags; also called R^690QSRRS(pT696)QGVTL^701; P-Thr-MYPT1^690−701; source: synthetic peptide, bought: Pepmic
[1]
  Kd: 33.2 ± 5.12 µM
[2]
  Kd: 0.39 ± 0.18 µM
[3]
  IC50 of inhibition of the phosphatase activity of Flag-MYPT1-PP1c with 32P-MLC20 substrate: 12.2 µM
[4]
  IC50 of inhibition of the phosphatase activity of rabbit skeletal muscle PP1c with 32P-MLC20 substrate: 3.84 µM
  half-life of dephosphorylation of 10 µM 32P-MLC20 by 100 nM PP1c with 0, 10, 100 and 500 µM peptide (101.6, 149.7, 227.9, 604.06 s); the peptide competes with the substrate P-MLC20 on PP1c: 10.1 min
  half-life of dephosphorylation of 100 µM peptide by 100 nM PP1c in the presence of 10 µM P-MLC20 (dot blot; 87.9 min without P-MLC20): ~103 min
